What was measured:
[1] = molecular target: T1, His-tagged dog PTK7 protein (dog, UniProt Q13308 31-703 (human entry)); assay: SPR Biacore 8K, Ab on Protein A chip
T1 construct: also called dPTK7-His
T1 chain: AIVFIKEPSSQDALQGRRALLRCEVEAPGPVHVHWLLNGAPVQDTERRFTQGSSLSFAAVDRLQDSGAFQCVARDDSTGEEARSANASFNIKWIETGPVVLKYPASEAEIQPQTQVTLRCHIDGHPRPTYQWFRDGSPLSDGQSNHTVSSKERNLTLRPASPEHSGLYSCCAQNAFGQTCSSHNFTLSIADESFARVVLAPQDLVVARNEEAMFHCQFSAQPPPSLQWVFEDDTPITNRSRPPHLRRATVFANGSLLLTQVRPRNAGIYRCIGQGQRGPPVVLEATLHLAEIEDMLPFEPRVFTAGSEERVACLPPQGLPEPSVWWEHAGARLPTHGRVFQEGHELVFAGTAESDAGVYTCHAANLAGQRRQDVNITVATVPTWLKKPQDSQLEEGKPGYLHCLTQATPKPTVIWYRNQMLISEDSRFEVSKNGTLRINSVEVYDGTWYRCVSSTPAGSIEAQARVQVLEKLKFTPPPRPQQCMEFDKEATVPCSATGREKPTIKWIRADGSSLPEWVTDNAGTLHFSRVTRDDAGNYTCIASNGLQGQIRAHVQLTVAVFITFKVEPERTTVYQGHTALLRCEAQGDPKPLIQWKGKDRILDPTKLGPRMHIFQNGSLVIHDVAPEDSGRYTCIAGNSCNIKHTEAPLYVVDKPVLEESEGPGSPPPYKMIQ
Protocol: (§1) The affinity of the anti-PTK7/TROP2 bispecific antibodies to His-tagged human TROP2 protein (hTROP2-His, ACRO Biosystems Inc., Cat #: TR2-H5223), His-tagged […] monkey TROP2 protein (cTROP2-His, ACRO Biosystems Inc., Cat #: Cat: TR2-R52H3), His-tagged dog TROP2 protein (dTROP2-His, ACRO Biosystems Inc., Cat #: TR2-C52H4), hPTK7-His, cPTK7-His and dPTK7-His were measured by surface plasmon resonance (SPR) using Biacore™ (Biacore, INC, Piscataway N.J.) 8K biosensor equipped with pre-immobilized Protein A sensor chips.

[2] = molecular target: T2, His-tagged cynomolgus monkey PTK7 protein (cynomolgus monkey, UniProt A0A2K5VNI5 39-712); assay: SPR Biacore 8K, Ab on Protein A chip
T2 construct: Bought protein; also called cPTK7-His; ACRO Biosystems Cat# PT7-C52H3; not shown: His tag
T2 sequence: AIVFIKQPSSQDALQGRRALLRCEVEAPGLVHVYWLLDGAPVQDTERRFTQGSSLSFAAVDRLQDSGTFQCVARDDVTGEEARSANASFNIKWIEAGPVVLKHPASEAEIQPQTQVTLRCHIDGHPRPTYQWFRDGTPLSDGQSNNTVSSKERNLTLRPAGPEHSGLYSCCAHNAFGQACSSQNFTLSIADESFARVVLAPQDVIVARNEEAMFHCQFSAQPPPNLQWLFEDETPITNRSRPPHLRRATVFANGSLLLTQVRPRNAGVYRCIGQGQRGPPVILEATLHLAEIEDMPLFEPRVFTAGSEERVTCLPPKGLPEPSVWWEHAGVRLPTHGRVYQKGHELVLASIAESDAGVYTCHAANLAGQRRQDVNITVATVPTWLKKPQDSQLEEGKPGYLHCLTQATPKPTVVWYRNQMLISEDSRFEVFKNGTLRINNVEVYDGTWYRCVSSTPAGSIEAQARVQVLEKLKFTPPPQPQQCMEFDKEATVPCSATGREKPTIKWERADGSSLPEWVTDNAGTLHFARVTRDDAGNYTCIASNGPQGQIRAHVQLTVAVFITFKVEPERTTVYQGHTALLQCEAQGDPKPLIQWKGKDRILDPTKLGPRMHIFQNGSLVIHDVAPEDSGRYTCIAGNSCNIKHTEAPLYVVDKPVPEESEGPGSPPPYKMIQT
Protocol: as §1

[3] = molecular target: T3, TROP2 on NCI-H1975 and NUGC-4 tumor cells (UniProt P09758 27-323, limits assumed); assay: flow cytometry on NUGC-4 cells (only TROP2 expression), anti-hIgG-Fc Alexa Fluor 647 secondary antibody, MFI [B]
T3 construct: whole, on cells; species of the lines is not worded there; also called TROP2 on cells
T3 sequence (looked up): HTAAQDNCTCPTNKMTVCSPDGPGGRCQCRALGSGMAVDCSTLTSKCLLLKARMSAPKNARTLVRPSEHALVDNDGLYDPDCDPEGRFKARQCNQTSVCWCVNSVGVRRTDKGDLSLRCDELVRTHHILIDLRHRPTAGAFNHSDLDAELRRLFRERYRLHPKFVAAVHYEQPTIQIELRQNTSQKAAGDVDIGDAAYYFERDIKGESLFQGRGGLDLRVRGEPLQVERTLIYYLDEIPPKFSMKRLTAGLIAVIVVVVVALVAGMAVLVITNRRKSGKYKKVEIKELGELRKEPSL
Protocol: This experiment was performed to test the binding activities of the anti-PTK7/TROP2 bispecific antibodies to different tumor cell lines. NCI-H1975 cells or NUGC-4 cells were transferred to a 96-well plate at a density of 5×10⁴ cells/well respectively. The sample antibody was added to the 96-well plate, and incubated at 4° C. for 30 min.

Kd [1]: 38.9 nM
koff [1]: 0.00449 s⁻¹
kon [1]: 115000 M⁻¹ s⁻¹
Kd [2]: 13.1 nM
koff [2]: 0.00167 s⁻¹
kon [2]: 127000 M⁻¹ s⁻¹
EC50 (read off the curve) [3]: ~0.6 µg/mL
B1: 3C4-18E9 (bispecific antibody, human IgG1, V domains shown)
VH 1: QVQLEQSRAEVKKPGESLRISCKGSGYSFTSYWISWVRQMPGKGLEWMGRIDPSDSYTNYNPSFQGHVTISADKSISTAYLQWSSLKASDTAMYYCARRDGSYFDFDYWGQGTLVTVSS
VH 2: QLQLQQSGPGLLKPSETLSLTCTVSGGSISSSYYFWGWIRQPPGKGLEWIGAIYYIGNTHYNPSLKSRVTISIDTSKNQFSLNLNSVTAADTAIYYCARYEDTWNWFDPWGQGTLVTVSS
VL: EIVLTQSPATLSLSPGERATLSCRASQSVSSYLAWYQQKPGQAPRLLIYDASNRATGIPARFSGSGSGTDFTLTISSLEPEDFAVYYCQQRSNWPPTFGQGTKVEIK
notes: which arm carries the knob is stated only for 3C4-6F7; also called anti-PTK7/TROP2 bispecific antibody 3C4-18E9

Reference: patent publication US20260250421A1 (BIOCYTOGEN PHARMACEUTICALS BEIJING, published 2026)
